Experiment [1] has as its target T1, N-terminal His (six histadine)-tagged IRF5 (222-425) SEQ ID NO 22 (human, UniProt Q13568 222-425).
T1 construct: also called His tag IRF5(222-425); his-tagged IRF5 (222-425, lacking helix 5 and unable to homodimerize)
Put plainly: direct binding TR-FRET, FITC peptide and Tb anti-His antibody (FIG. 2). For orientation: TR-FRET usually uses a lanthanide donor and a delayed reading to cut background.
Experimental: Aliquots (1.6 μl per well) of 4 μM FITC peptide solution in DMSO were added into 96-well polypropylene plates (Corning). […] The samples were incubated at room temperature for 30 min. […] Samples were incubated at 4° C. for overnight and 18 μl per well were transferred to small volume 384-well polystyrene plates (Corning) in duplicates.

Experiment [2] addresses T2, IRF5(222-467, S430D), S430D phosphomimetic construct of IRF5 (222-467) (human, UniProt Q13568-4 222-467).
T2 construct: range 222-467; Used in the dimer assay in two tagged forms at once (biotin tag and His tag); S and R stand 10 residues further (S440, R363), so the construct is probably numbered on an isoform 10 residues shorter; also called mutant S430D (222-467); biotin tag IRF5(222-467, S430D)
Put plainly: TR-FRET IRF5 dimerization inhibition, S430D (222-467), peptide titrated.
Experimental: (§1) The samples were incubated at room temperature for 20 min. Seventeen microliters per well of detection solution containing 10 nM europium (Eu) conjugated streptavidin and 80 nM allophycocyanin (APC) conjugated anti-His antibody (Columbia Biosciences) in Assay Buffer (without DTT) were added. The samples were incubated at room temperature for 60 min followed by overnight incubation at 40 C and 30 ul per well were transferred to 384-well polystyrene plates (Matrix, Thermal Scientific) in duplicates. […] The data were processed in Excel XLfit and the IC50 values were calculated using a nonlinear curve-fitting algorithm (four parameter equation). The data represent an average of 3 independent experiments (each run in triplicates) and the reported errors represent standard deviation (s.d.).

Experiment [3] has as its target T2, IRF5(222-467, S430D), S430D …. The description is as above. This is another data set of the same source.
Experimental: as §1

Like-named read-outs stand apart in the source and are kept apart here.

T2 sequence (Q13568 232-477 S440D limits assumed): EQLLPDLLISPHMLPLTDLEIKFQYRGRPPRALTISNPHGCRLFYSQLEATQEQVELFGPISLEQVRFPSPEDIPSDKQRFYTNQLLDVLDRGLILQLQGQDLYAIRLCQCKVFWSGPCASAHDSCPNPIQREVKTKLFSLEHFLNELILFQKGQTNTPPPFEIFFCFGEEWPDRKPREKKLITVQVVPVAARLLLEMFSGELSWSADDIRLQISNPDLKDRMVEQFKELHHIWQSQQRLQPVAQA
T1 sequence (Q13568 other isoform, or with tags, fused parts or gaps limits assumed): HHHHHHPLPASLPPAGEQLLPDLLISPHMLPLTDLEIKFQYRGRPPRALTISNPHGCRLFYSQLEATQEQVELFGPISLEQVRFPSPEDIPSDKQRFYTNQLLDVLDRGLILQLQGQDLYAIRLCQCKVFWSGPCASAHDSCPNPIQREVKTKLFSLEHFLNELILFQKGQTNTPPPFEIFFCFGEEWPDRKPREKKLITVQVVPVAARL

B1: control FITC labeled CPP designed not to bind IRF5 (SEQ ID NO: 23) (peptide)
peptide: Ac-YLKFIPLKRAIWLIK-NH2
modifications: also: FITC label, position and linker not given here
notes: Kept apart from m13
Consider B1, for which the binding result in experiment [1] is listed as “no binding (tested: 0-10.5 uM His tag IRF5(222-425))”.

B2: Ac-IRLQISNPDLKDLMVQWFKDGGPSSGAPPPS-NH2 (SEQ ID NO: 9) (peptide)
peptide: Ac-IRLQISNPDLKDLMVQWFKDGGPSSGAPPPS-NH2
The IC50 is the concentration that inhibits the measured activity by half. Read a high IC50 as weaker potency. In turn, B2 came in with an IC50 in experiment [2] of 2.42 µM.

B3: Ac-PFPPLPIGEEAPKDDMVRFFKDLHQYLNVV-NH2 (SEQ ID NO: 10) (peptide)
peptide: Ac-PFPPLPIGEEAPKDDMVRFFKDLHQYLNVV-NH2
As to B3, in experiment [2], the midpoint of inhibition, the IC50, lay at 1.67 µM.

B4: Ac-YLKFIPLKRAIWLIK-NH2 (SEQ ID NO: 23), control CPP designed not to bind IRF5 (peptide)
peptide: Ac-YLKFIPLKRAIWLIK-NH2
On to B4, for which the IC50 in experiment [3] was more than 75 µM.

Values taken from patent US20160009772A1 (Hoffmann-La Roche, published 2016).
